This data set relates to ATP. The data set is described as follows: switch fluorescence ratio, 500 uM ATP over buffer (Cy3 cluster intensity, sum of 5 cycles each) (fold (ratio)); higher = stronger signal-on switching upon ATP binding; sequences stand for … in TCGTCGGCAGCGTCAGATGTGTATAAGAGACAGTTTTTTTTTTTTTTTTTTTTTTTTT…TC. Conditions: aptamer strand: ATP DNA aptamer (quencher-CACCTGGGGGAGTATTGCGGAGGAAGG + anchor), 100 nM annealed; ATP concentration: 500 uM. Summed up: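 Per cluster, summed Cy3 intensity from the target cycles was divided by that from the buffer cycles to give the fluorescence ratio, then averaged per switch-domain sequence. Clusters outside 100-1000 RFU were excluded. The Cy3-labelled switching-strand clusters, on a modified Illumina MiSeq flow-cell, were annealed to 100 nM quencher-labelled ATP aptamer and imaged in selection buffer, then after 15 min with 500 uM ATP at 22 °C, for five cycles with NaOH stripping and re-annealing between them.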

± gives the standard deviation of the averaged measurements.
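Also: ATP exposure 15 min at 22 °C before imaging.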

Consider GAGGGAAGTT, for which the switch fluorescence ratio amounted to 1.04 ± 0.037.
As to GAGGGACGGC, the switch fluorescence ratio was determined as 0.999 ± 0.059.
Then GAGGGAGATT, with 1.02 ± 0.05.
For the sequence GAGGGAGCAG, the switch fluorescence ratio was 1.01 ± 0.017.
Turning to GAGGGAGGCT, the switch fluorescence ratio worked out at 1.04 ± 0.015.
For GAGGGAGGTC, the switch fluorescence ratio stood at 0.968 ± 0.043.
In the case of GAGGGAGTAT it was 0.9959 ± 0.0027; in that of GAGGGATAAA, 1.003 ± 0.0018; in that of GAGGGATCAG, 0.994 ± 0.011.
As for GAGGGATGGT, the switch fluorescence ratio worked out at 1.01 ± 0.029.
Then GAGGGATTTG, with 1 ± 0.03; and GAGGGCACAT, with 1.03 ± 0.05.
Then GAGGGCAGGG, with 0.978 ± 0.034.
In the case of GAGGGCCATT it was 0.978 ± 0.017; in that of GAGGGCCGGT, 1.03 ± 0.032; in that of GAGGGCTCTT, 1.05 ± 0.029.
As for GAGGGGAAGG, the switch fluorescence ratio was determined as 0.958 ± 0.057.
Then GAGGGGACGA, with 0.998 ± 0.011; and GAGGGGACGG, with 0.996 ± 0.015.
As for GAGGGGAGTG, the switch fluorescence ratio stood at 1.03 ± 0.064.
GAGGGGCATG: the switch fluorescence ratio was determined as 1.01 ± 0.032.
GAGGGGCTAA: the switch fluorescence ratio was determined as 0.9516 ± 0.0088.
For GAGGGGCTTC, the switch fluorescence ratio came to 1 ± 0.016.
Then GAGGGGGAGG, with 0.982 ± 0.019; and GAGGGGGATT, with 0.991 ± 0.028; and GAGGGGGCTC, with 1.04 ± 0.028.
Regarding GAGGGGGGCC, the switch fluorescence ratio was 1.01 ± 0.06.
In the case of GAGGGGGGTA it was 0.989 ± 0.02; in that of GAGGGGTATG, 1 ± 0.019; in that of GAGGGGTGAG, 1.01 ± 0.041.
Then GAGGGGTGGA, with 0.996 ± 0.015; and GAGGGGTGTA, with 0.9896 ± 0.0085.
Take GAGGGGTTGA: the switch fluorescence ratio is 1.01 ± 0.077.
Then GAGGGTAGGT, with 1.06 ± 0.063.
In the case of GAGGGTAGTC, the switch fluorescence ratio is 1.004 ± 0.007.
In the case of GAGGGTATGG it was 1.014 ± 0.0075; in that of GAGGGTCCGG, 0.991 ± 0.035.
As for GAGGGTTAAT, the switch fluorescence ratio was 1.02 ± 0.02.
Regarding GAGGGTTTTT, the switch fluorescence ratio stood at 1 ± 0.021.
In the case of GAGGTAAGAT it was 1.02 ± 0.032; in that of GAGGTACAAA, 1.013 ± 0.01.
With GAGGTACGGG, the switch fluorescence ratio was 0.98966 ± 0.00039.
As to GAGGTACTAG, the switch fluorescence ratio stood at 1.02 ± 0.0023.
For GAGGTCGCGC, the switch fluorescence ratio was determined as 1.01 ± 0.043.
Regarding GAGGTGTCG, the switch fluorescence ratio amounted to 1.04 ± 0.041.
Then GAGGTTAGAG, with 0.9796 ± 0.0026; and GAGGTTAGGA, with 1 ± 0.012; and GAGGTTCATT, with 1.09 ± 0.085.
Consider GAGGTTGATC, for which the switch fluorescence ratio came out at 0.983 ± 0.056.
As to GAGGTTGTAG, the switch fluorescence ratio was 0.994 ± 0.021.
Consider GAGGTTTCAC, for which the switch fluorescence ratio stood at 0.965 ± 0.023.
In the case of GAGGTTTCGT, the switch fluorescence ratio was 0.988 ± 0.02.
In the case of GAGGTTTCTA, the switch fluorescence ratio was 0.993 ± 0.038.
On to GAGTAACCTG, for which the switch fluorescence ratio was found to be 1.01 ± 0.071.
Take GAGTAAGCAA: the switch fluorescence ratio is 1.64 ± 0.084.
For the sequence GAGTACGCTA, the switch fluorescence ratio amounted to 3.07 ± 1.2.
In the case of GAGTACTCCT it was 1.04 ± 0.04; in that of GAGTACTCGT, 1.03 ± 0.034.
GAGTAGCGGA: the switch fluorescence ratio came out at 0.999 ± 0.042.
Take GAGTATAGAT: the switch fluorescence ratio worked out at 1.001 ± 0.0034.
In the case of GAGTATGGGT, the switch fluorescence ratio amounted to 1 ± 0.021.
In the case of GAGTCAATAG it was 2.98 ± 0.047; in that of GAGTCACAGT, 1 ± 0.057.
As for GAGTCAGAAT, the switch fluorescence ratio is 1.01 ± 0.013.
For GAGTCATGTG, the switch fluorescence ratio was determined as 1.01 ± 0.037.
For the sequence GAGTCCATGG, the switch fluorescence ratio worked out at 0.985 ± 0.013.
For the sequence GAGTCGGCGG, the switch fluorescence ratio was found to be 0.9893 ± 0.0023.
GAGTCGGGGG: the switch fluorescence ratio was found to be 0.985 ± 0.01.
GAGTCGGGGT: the switch fluorescence ratio came to 1.01 ± 0.027.
As to GAGTGAGGGC, the switch fluorescence ratio amounted to 0.9957 ± 0.003.
As to GAGTGAGTAC, the switch fluorescence ratio was 1 ± 0.055.
Regarding GAGTGAGTAT, the switch fluorescence ratio came out at 0.9731 ± 0.0071.
Then GAGTGATTTA, with 1.01 ± 0.035; and GAGTGCCTGG, with 1.02 ± 0.012.
On to GAGTGCTTAA, for which the switch fluorescence ratio worked out at 0.971 ± 0.022.
In the case of GAGTGGCTCT it was 0.968 ± 0.026; in that of GAGTGGGAGG, 1.02 ± 0.026.
Consider GAGTGGGCCT, for which the switch fluorescence ratio is 0.963 ± 0.044.
Then GAGTGGTCAG, with 0.9638 ± 0.0077.
In the case of GAGTGTATTT, the switch fluorescence ratio came to 1.02 ± 0.016.
In the case of GAGTTAAAAG, the switch fluorescence ratio worked out at 1.01 ± 0.02.
In the case of GAGTTAGTAA it was 0.999 ± 0.045.
Turning to GAGTTAGTTA, the switch fluorescence ratio is 0.989 ± 0.028.
On to GAGTTATGTA, for which the switch fluorescence ratio turned out to be 0.997 ± 0.016.
Turning to GAGTTGAGGA, the switch fluorescence ratio amounted to 0.98 ± 0.014.
In the case of GAGTTGGGGG it was 1.02 ± 0.012; in that of GAGTTTATGT, 1.01 ± 0.022.
Regarding GAGTTTATTA, the switch fluorescence ratio came out at 0.994 ± 0.021.
Turning to GAGTTTGGTG, the switch fluorescence ratio was 0.94 ± 0.033.
Take GAGTTTGTAT: the switch fluorescence ratio was determined as 0.961 ± 0.028.
Then GAGTTTTGGT, with 1.03 ± 0.019; and GATAAAAATA, with 0.998 ± 0.018.
As for GATAAAGACG, the switch fluorescence ratio was 0.9893 ± 0.0059.
As to GATAACGTTT, the switch fluorescence ratio was determined as 0.99 ± 0.017.
Turning to GATAAGAGCC, the switch fluorescence ratio turned out to be 1.008 ± 0.0024.
For GATAAGGGGT, the switch fluorescence ratio worked out at 0.981 ± 0.035.
Turning to GATAATAGGT, the switch fluorescence ratio is 0.993 ± 0.016.
In the case of GATAATGGTA it was 1.008 ± 0.005; in that of GATAATTGGT, 0.998 ± 0.012; in that of GATAATTTTG, 0.989 ± 0.027.
Consider GATACATTGC, for which the switch fluorescence ratio came to 1.07 ± 0.029.
For the sequence GATACTCGCG, the switch fluorescence ratio turned out to be 1.03 ± 0.0056.
Then GATACTGTGA, with 0.995 ± 0.023; and GATACTTCTA, with 0.972 ± 0.026; and GATAGAAAGA, with 0.964 ± 0.025.
Then GATAGACGAG, with 1.03 ± 0.043; and GATAGACGGA, with 0.99171 ± 0.00018.
In the case of GATAGACTCT, the switch fluorescence ratio was determined as 0.975 ± 0.029.
GATAGAGCAT: the switch fluorescence ratio came to 1.01 ± 0.013.
Turning to GATAGATAGA, the switch fluorescence ratio was found to be 0.9957 ± 0.002.
Turning to GATAGATTAG, the switch fluorescence ratio amounted to 0.998 ± 0.0038.
Take GATAGCAGCG: the switch fluorescence ratio is 1.01 ± 0.064.
For GATAGCTCTG, the switch fluorescence ratio was 1.02 ± 0.021.
Take GATAGCTGGT: the switch fluorescence ratio came to 0.981 ± 0.025.
As for GATAGCTTAG, the switch fluorescence ratio is 0.9935 ± 0.0071.
In the case of GATAGGGGCT it was 0.938 ± 0.042; in that of GATAGGGGGA, 0.984 ± 0.058.
Then GATAGGTAAG, with 0.962 ± 0.025; and GATAGGTTGT, with 1.02 ± 0.035; and GATAGTAGC, with 0.978 ± 0.024.
